From US20230242673A1 (published 2023) come the findings set out here.

Test [1] deals with T1, original PCSK9 (PCSK9 (human) recombinant protein, Abnova Cat No: H00255738-P01) (UniProt Q8NBP7 31-692). The experiment in a line: ELISA; 1st experiment.
The target of test [2] is T1, original PCSK9 (PCSK9 (human) …). Description: ELISA; 2nd experiment.
For test [3] the target is unchanged. The experiment in a line: ELISA; mean of two experiments, ±0.000.
For test [4] the target is unchanged. The experiment in a line: ELISA; mean of two experiments, ±0.014. On the technique in general: An ELISA detects its analyte on a solid surface through an enzyme-linked reagent.
Test [5] has the same target. The experiment in a line: ELISA; mean of two experiments, ±0.028.

T1 sequence (Q8NBP7 other isoform, or with tags, fused parts or gaps): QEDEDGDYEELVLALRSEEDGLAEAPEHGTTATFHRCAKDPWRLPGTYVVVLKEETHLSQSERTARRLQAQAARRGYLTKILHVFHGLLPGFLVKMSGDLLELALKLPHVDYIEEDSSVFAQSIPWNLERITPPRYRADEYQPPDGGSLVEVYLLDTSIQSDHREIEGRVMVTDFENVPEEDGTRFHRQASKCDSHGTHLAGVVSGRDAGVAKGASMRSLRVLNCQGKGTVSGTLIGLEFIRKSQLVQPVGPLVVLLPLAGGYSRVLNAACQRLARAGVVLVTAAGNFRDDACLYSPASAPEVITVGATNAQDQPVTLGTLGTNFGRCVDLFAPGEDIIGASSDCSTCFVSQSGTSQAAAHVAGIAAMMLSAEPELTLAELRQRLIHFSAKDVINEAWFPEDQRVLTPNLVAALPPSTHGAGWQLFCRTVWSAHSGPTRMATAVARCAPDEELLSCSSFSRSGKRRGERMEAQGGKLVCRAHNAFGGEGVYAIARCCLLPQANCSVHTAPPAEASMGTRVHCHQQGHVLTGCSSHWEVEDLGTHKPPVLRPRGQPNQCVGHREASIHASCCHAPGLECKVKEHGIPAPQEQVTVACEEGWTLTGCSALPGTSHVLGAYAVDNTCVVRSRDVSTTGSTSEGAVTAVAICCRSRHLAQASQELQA

B1: hz7D1.11 IgG (antibody, V domains shown)
VH: QVQLVQSGAEVKKPGASVKVSCKASGFNIKDYYMHWVRQAPGQGLEWIGYIDPENGDTEYAPKFQGRATMTADTSISTAYMELSRLRSDDTAVYYCRSSPFTYWGQGTLVTVSS
VL: DVVMTQSPLSLPVTLGQPASISCKSSQSLLDSDGKTYLNWLQQRPGQSPRRLIYLVSKLDSGVPDRFSGSGSGTDFTLKISRVEAEDVGVYYCWQGTHFPQTFGGGTKVEIKR
The term EC50 denotes the midpoint of the concentration-response curve. Regarding B1, the EC50 in test [1], in test [2] and in test [3] was 0.13 µg/mL in each case.

B2: hz7D1.22 IgG (antibody, V domains shown)
VH: QVQLVQSGAEVKKPGASVKVSCKASGYTFKDYYMHWVRQAPGQGLEWMGYIDPENGDTEYAPKFQGRVTMTADTSISTAYMELSRLRSDDTAVYYCRSSPFTYWGQGTLVTVSS
VL: DVVMTQSPLSLPVTLGQPASISCKSSQSLLDSDGKTYLNWFQQRPGQSPRRLIYLVSKLDSGVPDRFSGSGSGTDFTLKISRVEAEDVGVYYCWQGTHFPQTFGGGTKVEIKR
In the case of B2, the figures for the EC50 in test [1], in test [2] and in test [4] were 0.19 µg/mL, 0.17 µg/mL and 0.18 µg/mL, respectively.

B3: ch7D1 IgG (antibody, V domains shown)
VH: EVKLVESGAELVRSGASVKLSCTASGFNIKDYYMHWVKQRPEQGLEWIGYIDPENGDTEYAPKFQGKATMTADTSSNTAYLQLSSLTSEDTAVYYCRSSPFTYWGQGTLVTVSA
VL: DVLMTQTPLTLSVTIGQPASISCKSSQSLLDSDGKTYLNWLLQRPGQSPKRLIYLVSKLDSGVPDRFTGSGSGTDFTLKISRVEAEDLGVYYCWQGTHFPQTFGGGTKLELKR
B3: the 50% effective concentration (EC50) amounted to 0.36 µg/mL in test [1], 0.4 µg/mL in test [2] and 0.38 µg/mL in test [5].
